Reference: doi:10.1101/386532 (bioRxiv, 2018)
One block for each binder: values may come before it.

B2: IST1(1–189) (IST1NTD) (domain or fragment, human, UniProt P53990 1-189, looked up)
chain: MLGSGFKAERLRVNLRLVINRLKLLEKKKTELAQKARKEIADYLAAGKDERARIRVEHIIREDYLVEAMEILELYCDLLLARFGLIQSMKELDSGLAESVSTLIWAAPRLQSEVAELKIVADQLCAKYSKEYGKLCRTNQIGTVNDRLMHKLSVEAPPKILVERYLIEIAKNYNVPYEPDSVVMAEAPP

What was measured:
cryo-EM structure = molecular target: the molecule itself; experiment: cryo-EM structure
[1] = molecular target: the molecule itself; experiment: negative stain EM of filament assembly
GST-CHMP1B(4–199) (WT) = molecular target: T1, GST-CHMP1B(4–199) (WT) (human, UniProt Q7LBR1 4-199); experiment: SPR
T1 sequence (looked up): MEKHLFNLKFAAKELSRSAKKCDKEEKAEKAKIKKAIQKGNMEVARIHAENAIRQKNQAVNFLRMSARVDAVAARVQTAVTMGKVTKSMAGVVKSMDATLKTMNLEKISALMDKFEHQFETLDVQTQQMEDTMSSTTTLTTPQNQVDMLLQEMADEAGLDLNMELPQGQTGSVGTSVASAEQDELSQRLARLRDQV

IST1(1–189) (IST1NTD) = molecular target: B2; experiment: SPR

B1: CHMP1B(4–199) for structure determination (from His-SUMO fusion) (natural protein, human, UniProt Q7LBR1 4-199, looked up)
chain: MEKHLFNLKFAAKELSRSAKKCDKEEKAEKAKIKKAIQKGNMEVARIHAENAIRQKNQAVNFLRMSARVDAVAARVQTAVTMGKVTKSMAGVVKSMDATLKTMNLEKISALMDKFEHQFETLDVQTQQMEDTMSSTTTLTTPQNQVDMLLQEMADEAGLDLNMELPQGQTGSVGTSVASAEQDELSQRLARLRDQV
binding result (cryo-EM structure): binds

Binder: B2
binding result [1]: binds
Kd (GST-CHMP1B(4–199) (WT)): 92 µM

Kd (IST1(1–189) (IST1NTD)): 91 µM
Binder: DELSQRLARLRDQV (peptide, UniProt Q7LBR1 186-199, looked up) [GST-CHMP1Bα6 (CHMP1B MIM1 element alone, residues 186–199)]
